Experiment [1] addresses T1, Purified native TINTIN (Eaf5-Eaf7-Eaf3) (S. cerevisiae, UniProt P39995 1-279; P53911 1-425; Q12432 1-401).
T1 construct: Eaf5, S. cerevisiae; Eaf7, S. cerevisiae; Eaf3, S. cerevisiae; The pull-down blots used anti-TAP and anti-Eaf3, so one subunit probably carries a TAP tag or its remnant; also called TINTIN subcomplex; source: purified native TINTIN; copies: + +
T1 sequence (looked up) 1: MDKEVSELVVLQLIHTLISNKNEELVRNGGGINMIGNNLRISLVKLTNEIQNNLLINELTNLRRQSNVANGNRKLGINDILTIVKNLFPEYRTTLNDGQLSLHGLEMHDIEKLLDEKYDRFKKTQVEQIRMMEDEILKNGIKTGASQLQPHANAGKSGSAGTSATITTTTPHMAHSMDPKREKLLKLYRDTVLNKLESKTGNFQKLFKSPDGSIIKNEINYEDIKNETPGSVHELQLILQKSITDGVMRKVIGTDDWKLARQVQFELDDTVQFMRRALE
T1 sequence (looked up) 2: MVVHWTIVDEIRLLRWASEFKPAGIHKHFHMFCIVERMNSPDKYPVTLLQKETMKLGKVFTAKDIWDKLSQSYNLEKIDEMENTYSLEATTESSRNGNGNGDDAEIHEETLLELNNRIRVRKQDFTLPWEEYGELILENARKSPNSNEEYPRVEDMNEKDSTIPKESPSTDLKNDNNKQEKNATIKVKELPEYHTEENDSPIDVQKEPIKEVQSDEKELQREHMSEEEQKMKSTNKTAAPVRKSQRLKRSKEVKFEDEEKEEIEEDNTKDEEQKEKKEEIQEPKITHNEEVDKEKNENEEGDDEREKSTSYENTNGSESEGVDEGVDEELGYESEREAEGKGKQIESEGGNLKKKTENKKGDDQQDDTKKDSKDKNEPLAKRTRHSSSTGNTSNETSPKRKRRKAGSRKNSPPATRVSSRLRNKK
T1 sequence (looked up) 3: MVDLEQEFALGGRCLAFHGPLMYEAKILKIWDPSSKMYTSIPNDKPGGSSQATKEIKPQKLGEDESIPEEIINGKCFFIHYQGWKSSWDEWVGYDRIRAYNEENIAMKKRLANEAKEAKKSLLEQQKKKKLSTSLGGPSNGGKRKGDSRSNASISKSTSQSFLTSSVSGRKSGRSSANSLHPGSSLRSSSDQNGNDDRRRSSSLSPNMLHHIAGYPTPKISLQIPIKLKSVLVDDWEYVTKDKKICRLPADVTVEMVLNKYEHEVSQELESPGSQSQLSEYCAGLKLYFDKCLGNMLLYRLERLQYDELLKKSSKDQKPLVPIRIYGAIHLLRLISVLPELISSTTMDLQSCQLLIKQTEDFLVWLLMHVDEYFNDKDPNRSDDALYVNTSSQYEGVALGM
In words: pull-down; 300–600 ng GST-tagged Eaf1 fragments immobilised on glutathione sepharose, incubated with purified native TINTIN or His-tagged Tra1 (3200–3744) for 3–4 h at 4 °C; binding buffer 25 mM HEPES pH 7.5, 100 mM NaCl, 10% glycerol, 0.1% Tween-20; western blotting (anti-TAP, anti-Eaf3, anti-His). Particulars: both partners purified. (In western blotting, separated proteins are transferred to a membrane and probed.)

Experiment [2] has as its target T2, Recombinant His-tagged Tra1 (3200–3744) (S. cerevisiae, UniProt P38811 3200-3744).
T2 construct: Tra1, S. cerevisiae, residues 3200–3744 (FRB-PI3K-FATC); also called recombinant Tra1 C-terminus (FRB-PI3K-FATC); source: recombinant, bacterial culture, purified (Ni-NTA, eluted with imidazole)
T2 sequence (looked up): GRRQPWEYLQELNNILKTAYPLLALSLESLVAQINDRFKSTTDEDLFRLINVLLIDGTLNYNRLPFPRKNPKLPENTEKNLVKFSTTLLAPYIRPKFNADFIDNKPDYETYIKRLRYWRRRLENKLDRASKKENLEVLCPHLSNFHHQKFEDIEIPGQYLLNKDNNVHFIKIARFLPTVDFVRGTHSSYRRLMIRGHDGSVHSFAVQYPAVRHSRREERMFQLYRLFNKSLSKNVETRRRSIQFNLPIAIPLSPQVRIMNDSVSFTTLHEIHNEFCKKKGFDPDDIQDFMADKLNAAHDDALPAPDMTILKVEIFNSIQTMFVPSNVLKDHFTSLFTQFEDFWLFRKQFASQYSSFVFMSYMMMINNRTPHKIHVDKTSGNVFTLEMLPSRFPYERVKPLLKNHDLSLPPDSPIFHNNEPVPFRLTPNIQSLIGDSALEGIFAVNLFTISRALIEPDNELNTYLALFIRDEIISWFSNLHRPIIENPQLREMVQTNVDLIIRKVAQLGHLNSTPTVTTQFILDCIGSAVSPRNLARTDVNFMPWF
Described as above. Particulars: both partners purified.

We go through two molecules from article PMC5861120, “Architecture of the Saccharomyces cerevisiae NuA4/TIP60 complex” (Nature Communications, 2018).

B1: GST-tagged Eaf1 (1–530) (domain or fragment, S. cerevisiae, UniProt Q06337 1-530, looked up)
chain: MSSRPSSAVPNSASLSEDQSSDRSKFPKADDLIDERDRKLTELYCVSRLNQLLELTDENKLRKEIDAFLKKNDIRRGIRFDEASLPKLLHTAATPITKKKLKDVNLINVPNQRLSDSKMSRELPENSENVSVKSESHFVPSHDNSIRENMMDSLRPAEKTGGMWNKRPLESTMGGEEERHEKRQKMQSQSLESSNNSEMASLPISPRPPVPNALAHYTYYENIEYPPADPTEVQPAVKFKDPLIKNIMAKEIDTSDHYNENNVDALETVFLLMNDYIPSKIPQALPLAELKYMSQTLPLINLIPRAHKALTTNIINNALNEARITVVGSRIEELRRLGLWSLRQPKRFIDPWKQHNTHQNILLEEAKWMQADFKEGHKYKVAICTAMAQAIKDYWTYGEICCVKRKTLLPGKENKLSDDGRISEKSGRPSDTSRNDSDISIAGKDDIGIIANVDDITEKESAAANDNDENGKNEAGAKSDFDFADGLLSQEGAHDQIISSIDTKLLLKKPSSSSEVVLIQHEVAASSALI
notes: also called Eaf1 N-terminal half; N-terminal portion of Eaf1; source: recombinant, bacterial culture, held on glutathione sepharose beads
Take B1: the binding result in experiment [1] is “binds”.

B2: GST-tagged Eaf1 (536–982) (domain or fragment, S. cerevisiae, UniProt Q06337 536-982, looked up)
chain: KKELAPPFKLSIFVDELNTFEKTLIQDLPLYNGINEERPKKDDSLPFIPISKSVVSLDDNGFYKLLERQLIDEEPSISQLSKRRGMFYGNRRNHYLRPPAVPSLRYLQNRTPTIWLSEDDQELVKNINTYGYNWELISAHMTHRLTYSYLSNIERRTPWQCFERFVQLNERFNFSDLKGPRAHSAQQWLIEAHKFQQRQNRRISPLGVNTESIQRGHRRLRWASMFEAIRKCMKKRENTPRPNPTQPRKPLDCKNMKVPTPAEMSLLKAQRDEALRRDIQLRRTVKNRLQQRQQQSQQAHSSRAQSPIPSNGKSSSNLARNGQASAPRPNQKQYTEQDIIESYSRKLLEQKPDIGPEMALKAAKNYYRTLREQQQQLKQHQIQQQRQQLQEESSHVQQLQQLQPGSQAPPPKSSPSQSSLSNISNINSAPRIKSPTPQEILQRFQKQ
notes: also called Eaf1 C-terminal half; C-terminal region of Eaf1; source: recombinant, bacterial culture, held on glutathione sepharose beads
Turning to B2, the binding result in experiment [2] is “binds”.
